# Measured values reported in patent US7432061B2, “Assays for measuring matrix metalloproteinase activities” (BioZyme, Inc., priority 2002, dated 2008).
# Legend:
# [1] = biological target: T1, gelatinase A (Homo sapiens, UniProt P08253); assay: Inhibition with type II collagen, FlSub3 cleavage; assay type: biochemical; settings: for Improvement In Selectivity (Gel-A v Col-3): 44 ug/ml Type II Collagen vs no Type II Collagen, FlSb3; for Average Percent Inhibition from 1.1 to 6.6 Hours / Average Percent Inhibition: GELA(.025 nM)
# T1 sequence (P08253 110-660): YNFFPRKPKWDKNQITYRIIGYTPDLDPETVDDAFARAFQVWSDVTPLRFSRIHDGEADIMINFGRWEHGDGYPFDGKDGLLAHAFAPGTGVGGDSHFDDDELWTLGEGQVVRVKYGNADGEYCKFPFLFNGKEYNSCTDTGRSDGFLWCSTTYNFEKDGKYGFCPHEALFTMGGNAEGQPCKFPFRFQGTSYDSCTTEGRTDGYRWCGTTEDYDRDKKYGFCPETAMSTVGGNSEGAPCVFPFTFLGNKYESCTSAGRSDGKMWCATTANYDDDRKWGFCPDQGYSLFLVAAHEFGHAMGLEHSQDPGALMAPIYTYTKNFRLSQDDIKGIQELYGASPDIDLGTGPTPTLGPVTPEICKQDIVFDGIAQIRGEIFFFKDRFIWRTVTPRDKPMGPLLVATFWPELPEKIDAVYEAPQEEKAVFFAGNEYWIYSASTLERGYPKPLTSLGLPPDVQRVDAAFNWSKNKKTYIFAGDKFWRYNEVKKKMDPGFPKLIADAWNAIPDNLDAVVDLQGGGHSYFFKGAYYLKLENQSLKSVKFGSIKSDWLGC
# Protocol: (§1) In a 96 well plate, collagenase 3 (0.013 nM), collagenase 1 (1.25 nM), stromelysin 1 (0.8 nM), gelatinase A (0.025 nM), or gelatinase B (0.008 nM) were reacted with 20 uM FlSub3 in standard assay buffer in the presence of varying concentrations of bovine type II collagen (0.18-44 ug/ml). The type II collagen, a 1 mg/ml stock in 0.5M acetic acid, was transferred into assay buffer by passing the material through a biospin P6 column from Amersham. The reaction was initiated by addition of substrate to enzyme containing either buffer or an appropriate amount of type II collagen. Data points were taken every 15 min over a period of 15 hours using an excitation and emission wavelength of 350 and 485 nm respectively. The usable data (1-6 hours), was taken and the percent inhibition by type II collagen was calculated for each enzyme and plotted as a function of inhibitor concentration and time in the assay. It should be noted that the percent inhibition varies with time as the bovine substrate is consumed during the reaction course.
# [2] = biological target: gelatinase B (Homo sapiens, UniProt P14780); assay: Inhibition with type II collagen, FlSub3 cleavage; assay type: biochemical; settings: for Improvement In Selectivity (Gel-B v Col-3): 44 ug/ml Type II Collagen vs no Type II Collagen, FlSb3; for Average Percent Inhibition from 1.1 to 6.6 Hours / Average Percent Inhibition: GELB(.008 nM)
# Chain of gelatinase B (P14780 94-707): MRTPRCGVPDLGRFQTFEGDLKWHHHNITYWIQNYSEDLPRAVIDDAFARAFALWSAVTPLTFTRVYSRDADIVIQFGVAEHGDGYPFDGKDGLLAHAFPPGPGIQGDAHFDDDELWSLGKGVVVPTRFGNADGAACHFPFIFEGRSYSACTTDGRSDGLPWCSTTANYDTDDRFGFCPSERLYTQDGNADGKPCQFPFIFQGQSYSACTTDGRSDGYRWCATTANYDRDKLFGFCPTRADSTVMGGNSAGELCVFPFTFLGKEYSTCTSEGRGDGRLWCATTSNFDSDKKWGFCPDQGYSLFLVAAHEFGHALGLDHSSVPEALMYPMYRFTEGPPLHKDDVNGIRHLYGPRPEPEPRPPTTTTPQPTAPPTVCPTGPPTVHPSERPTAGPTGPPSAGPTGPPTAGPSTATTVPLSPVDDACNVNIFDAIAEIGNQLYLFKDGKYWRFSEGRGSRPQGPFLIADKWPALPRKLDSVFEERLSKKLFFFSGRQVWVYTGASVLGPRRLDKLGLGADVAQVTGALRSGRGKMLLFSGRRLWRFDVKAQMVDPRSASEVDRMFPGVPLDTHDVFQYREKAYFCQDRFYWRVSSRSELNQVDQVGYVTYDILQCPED
# Protocol: as §1
# [3] = TypeIICOL(1.6 ug/ul), FISb3, hour 0.10 to 1.10
# [4] = TypeIICOL(1.6 ug/ul), FISb3, hour 1.10 to 2.10
# [5] = TypeIICOL(1.6 ug/ul), FISb3, hour 1.10 to 6.60
# [6] = TypeIICOL(1.6 ug/ul), FISb3, hour 2.10 to 3.10
# [7] = TypeIICOL(1.6 ug/ul), FISb3, hour 3.10 to 4.10
# [8] = TypeIICOL(1.6 ug/ul), FISb3, hour 4.10 to 5.10
# [9] = TypeIICOL(1.6 ug/ul), FISb3, hour 5.10 to 6.10
# [10] = TypeIICOL(4.9 ug/ul), FISb3, hour 0.10 to 1.10
# [11] = TypeIICOL(4.9 ug/ul), FISb3, hour 1.10 to 2.10
# [12] = TypeIICOL(4.9 ug/ul), FISb3, hour 1.10 to 6.60
# [13] = TypeIICOL(4.9 ug/ul), FISb3, hour 2.10 to 3.10
# [14] = TypeIICOL(4.9 ug/ul), FISb3, hour 3.10 to 4.10
# [15] = TypeIICOL(4.9 ug/ul), FISb3, hour 4.10 to 5.10
# [16] = TypeIICOL(4.9 ug/ul), FISb3, hour 5.10 to 6.10
# [17] = TypeIICOL(15 ug/ul), FISb3, hour 0.10 to 1.10
# [18] = TypeIICOL(15 ug/ul), FISb3, hour 1.10 to 2.10
# [19] = TypeIICOL(15 ug/ul), FISb3, hour 1.10 to 6.60
# [20] = TypeIICOL(15 ug/ul), FISb3, hour 2.10 to 3.10
# [21] = TypeIICOL(15 ug/ul), FISb3, hour 3.10 to 4.10
# [22] = TypeIICOL(15 ug/ul), FISb3, hour 4.10 to 5.10
# [23] = TypeIICOL(15 ug/ul), FISb3, hour 5.10 to 6.10
# [24] = TypeIICOL(44 ug/ul), FISb3, hour 0.10 to 1.10
# [25] = TypeIICOL(44 ug/ul), FISb3, hour 1.10 to 2.10
# [26] = TypeIICOL(44 ug/ul), FISb3, hour 1.10 to 6.60
# [27] = TypeIICOL(44 ug/ul), FISb3, hour 2.10 to 3.10
# [28] = TypeIICOL(44 ug/ul), FISb3, hour 3.10 to 4.10
# [29] = TypeIICOL(44 ug/ul), FISb3, hour 4.10 to 5.10
# [30] = TypeIICOL(44 ug/ul), FISb3, hour 5.10 to 6.10
# [31] = TypeIICOL(.18 ug/ul), FISb3, hour 0.10 to 1.10
# [32] = TypeIICOL(.18 ug/ul), FISb3, hour 1.10 to 2.10
# [33] = TypeIICOL(.18 ug/ul), FISb3, hour 1.10 to 6.60
# [34] = TypeIICOL(.18 ug/ul), FISb3, hour 2.10 to 3.10
# [35] = TypeIICOL(.18 ug/ul), FISb3, hour 3.10 to 4.10
# [36] = TypeIICOL(.18 ug/ul), FISb3, hour 4.10 to 5.10
# [37] = TypeIICOL(.18 ug/ul), FISb3, hour 5.10 to 6.10
# [38] = TypeIICOL(.55 ug/ul), FISb3, hour 0.10 to 1.10
# [39] = TypeIICOL(.55 ug/ul), FISb3, hour 1.10 to 2.10
# [40] = TypeIICOL(.55 ug/ul), FISb3, hour 1.10 to 6.60
# [41] = TypeIICOL(.55 ug/ul), FISb3, hour 2.10 to 3.10
# [42] = TypeIICOL(.55 ug/ul), FISb3, hour 3.10 to 4.10
# [43] = TypeIICOL(.55 ug/ul), FISb3, hour 4.10 to 5.10
# [44] = TypeIICOL(.55 ug/ul), FISb3, hour 5.10 to 6.10
# [45] = highest concentration (44 ug/ml), six hour time course, FlSub3
substance,measurement,setting,value
"Type II Collagen: bovine type II collagen, full length MMP substrate used as inhibitor of gelatinases",Improvement In Selectivity (Gel-A v Col-3),[1],80 fold
same,Improvement In Selectivity (Gel-A v Col-3),[1]; listed as collagen,approximately 80 fold
same,Average Percent Inhibition from 1.1 to 6.6 Hours,[1]; Type II Collagen 0.18 ug/ml,2%
same,Average Percent Inhibition from 1.1 to 6.6 Hours,[1]; Type II Collagen 0.54 ug/ml,6%
same,Average Percent Inhibition from 1.1 to 6.6 Hours,[1]; Type II Collagen 1.63 ug/ml,−52%
same,Average Percent Inhibition from 1.1 to 6.6 Hours,[1]; Type II Collagen 4.89 ug/ml,32%
same,Average Percent Inhibition from 1.1 to 6.6 Hours,[1]; Type II Collagen 14.67 ug/ml,56%
same,Average Percent Inhibition from 1.1 to 6.6 Hours,[1]; Type II Collagen 44.00 ug/ml,83%
same,Average Percent Inhibition,[1]; [3],−27%
same,Average Percent Inhibition,[1]; [4],4%
same,Average Percent Inhibition,[1]; [5],−52%
same,Average Percent Inhibition,[1]; [6],−11%
same,Average Percent Inhibition,[1]; [7],−37%
same,Average Percent Inhibition,[1]; [8],−68%
same,Average Percent Inhibition,[1]; [9],−104%
same,Average Percent Inhibition,[1]; [10],37%
same,Average Percent Inhibition,[1]; [11],43%
same,Average Percent Inhibition,[1]; [12],32%
same,Average Percent Inhibition,[1]; [13],46%
same,Average Percent Inhibition,[1]; [14],37%
same,Average Percent Inhibition,[1]; [15],27%
same,Average Percent Inhibition,[1]; [16],19%
same,Average Percent Inhibition,[1]; [17],56%
same,Average Percent Inhibition,[1]; [18],64%
same,Average Percent Inhibition,[1]; [19],56%
same,Average Percent Inhibition,[1]; [20],70%
same,Average Percent Inhibition,[1]; [21],64%
same,Average Percent Inhibition,[1]; [22],53%
same,Average Percent Inhibition,[1]; [23],41%
same,Average Percent Inhibition,[1]; [24],58%
same,Average Percent Inhibition,[1]; [25],78%
same,Average Percent Inhibition,[1]; [26],83%
same,Average Percent Inhibition,[1]; [27],86%
same,Average Percent Inhibition,[1]; [28],87%
same,Average Percent Inhibition,[1]; [29],85%
same,Average Percent Inhibition,[1]; [30],82%
same,Average Percent Inhibition,[1]; [31],3%
same,Average Percent Inhibition,[1]; [32],9%
same,Average Percent Inhibition,[1]; [33],2%
same,Average Percent Inhibition,[1]; [34],7%
same,Average Percent Inhibition,[1]; [35],3%
same,Average Percent Inhibition,[1]; [36],0%
same,Average Percent Inhibition,[1]; [37],−3%
same,Average Percent Inhibition,[1]; [38],2%
same,Average Percent Inhibition,[1]; [39],11%
same,Average Percent Inhibition,[1]; [40],6%
same,Average Percent Inhibition,[1]; [41],12%
same,Average Percent Inhibition,[1]; [42],8%
same,Average Percent Inhibition,[1]; [43],4%
same,Average Percent Inhibition,[1]; [44],−1%
same,inhibition of gelatinase A by type II collagen,[1]; [45],Almost complete inhibition
same,Improvement In Selectivity (Gel-B v Col-3),[2],46 fold
same,Improvement In Selectivity (Gel-B v Col-3),[2]; listed as collagen,approximately 80 fold
same,Average Percent Inhibition from 1.1 to 6.6 Hours,[2]; Type II Collagen 0.18 ug/ml,9%
same,Average Percent Inhibition from 1.1 to 6.6 Hours,[2]; Type II Collagen 0.54 ug/ml,9%
same,Average Percent Inhibition from 1.1 to 6.6 Hours,[2]; Type II Collagen 1.63 ug/ml,12%
same,Average Percent Inhibition from 1.1 to 6.6 Hours,[2]; Type II Collagen 4.89 ug/ml,38%
same,Average Percent Inhibition from 1.1 to 6.6 Hours,[2]; Type II Collagen 14.67 ug/ml,65%
same,Average Percent Inhibition from 1.1 to 6.6 Hours,[2]; Type II Collagen 44.00 ug/ml,84%
same,Average Percent Inhibition,[2]; [3],−28%
same,Average Percent Inhibition,[2]; [4],14%
same,Average Percent Inhibition,[2]; [5],12%
same,Average Percent Inhibition,[2]; [6],19%
same,Average Percent Inhibition,[2]; [7],15%
same,Average Percent Inhibition,[2]; [8],11%
same,Average Percent Inhibition,[2]; [9],7%
same,Average Percent Inhibition,[2]; [10],35%
same,Average Percent Inhibition,[2]; [11],43%
same,Average Percent Inhibition,[2]; [12],38%
same,Average Percent Inhibition,[2]; [13],47%
same,Average Percent Inhibition,[2]; [14],41%
same,Average Percent Inhibition,[2]; [15],35%
same,Average Percent Inhibition,[2]; [16],30%
same,Average Percent Inhibition,[2]; [17],57%
same,Average Percent Inhibition,[2]; [18],67%
same,Average Percent Inhibition,[2]; [19],65%
same,Average Percent Inhibition,[2]; [20],72%
same,Average Percent Inhibition,[2]; [21],69%
same,Average Percent Inhibition,[2]; [22],64%
same,Average Percent Inhibition,[2]; [23],59%
same,Average Percent Inhibition,[2]; [24],41%
same,Average Percent Inhibition,[2]; [25],82%
same,Average Percent Inhibition,[2]; [26],84%
same,Average Percent Inhibition,[2]; [27],87%
same,Average Percent Inhibition,[2]; [28],87%
same,Average Percent Inhibition,[2]; [29],85%
same,Average Percent Inhibition,[2]; [30],83%
same,Average Percent Inhibition,[2]; [31],3%
same,Average Percent Inhibition,[2]; [32],12%
same,Average Percent Inhibition,[2]; [33],9%
same,Average Percent Inhibition,[2]; [34],11%
same,Average Percent Inhibition,[2]; [35],9%
same,Average Percent Inhibition,[2]; [36],7%
same,Average Percent Inhibition,[2]; [37],5%
same,Average Percent Inhibition,[2]; [38],3%
same,Average Percent Inhibition,[2]; [39],10%
same,Average Percent Inhibition,[2]; [40],9%
same,Average Percent Inhibition,[2]; [41],12%
same,Average Percent Inhibition,[2]; [42],10%
same,Average Percent Inhibition,[2]; [43],8%
same,Average Percent Inhibition,[2]; [44],6%
same,inhibition of gelatinase B by type II collagen,[2]; [45],Almost complete inhibition
